T1: rNFH-SA (engineered protein with residues 426-1066 of the rat NF-H sidearm domain, N-terminal tetra-Cys tag, C-terminal poly-His-Asn tag)
T1 sequence: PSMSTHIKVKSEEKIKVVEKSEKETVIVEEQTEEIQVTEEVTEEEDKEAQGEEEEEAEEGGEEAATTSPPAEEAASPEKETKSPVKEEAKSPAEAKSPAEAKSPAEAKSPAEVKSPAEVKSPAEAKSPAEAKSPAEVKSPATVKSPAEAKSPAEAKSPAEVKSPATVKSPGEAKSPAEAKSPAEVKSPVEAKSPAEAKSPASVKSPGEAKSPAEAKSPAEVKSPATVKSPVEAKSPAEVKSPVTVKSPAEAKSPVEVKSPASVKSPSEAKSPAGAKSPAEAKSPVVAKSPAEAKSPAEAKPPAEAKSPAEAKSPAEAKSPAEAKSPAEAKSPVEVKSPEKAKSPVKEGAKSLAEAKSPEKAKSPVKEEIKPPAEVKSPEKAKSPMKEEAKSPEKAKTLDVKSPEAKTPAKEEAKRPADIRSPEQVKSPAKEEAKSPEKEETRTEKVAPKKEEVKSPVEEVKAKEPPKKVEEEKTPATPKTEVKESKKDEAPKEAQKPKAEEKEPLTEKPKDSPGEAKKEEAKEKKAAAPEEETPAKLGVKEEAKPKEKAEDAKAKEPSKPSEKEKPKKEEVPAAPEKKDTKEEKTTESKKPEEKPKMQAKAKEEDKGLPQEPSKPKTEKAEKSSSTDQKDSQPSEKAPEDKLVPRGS

T2: rNFH-SA (engineered protein with residues 426-1066 of the rat NF-H sidearm domain, N-terminal tetra-Cys tag, C-terminal poly-His-Asn tag)
T2 chain: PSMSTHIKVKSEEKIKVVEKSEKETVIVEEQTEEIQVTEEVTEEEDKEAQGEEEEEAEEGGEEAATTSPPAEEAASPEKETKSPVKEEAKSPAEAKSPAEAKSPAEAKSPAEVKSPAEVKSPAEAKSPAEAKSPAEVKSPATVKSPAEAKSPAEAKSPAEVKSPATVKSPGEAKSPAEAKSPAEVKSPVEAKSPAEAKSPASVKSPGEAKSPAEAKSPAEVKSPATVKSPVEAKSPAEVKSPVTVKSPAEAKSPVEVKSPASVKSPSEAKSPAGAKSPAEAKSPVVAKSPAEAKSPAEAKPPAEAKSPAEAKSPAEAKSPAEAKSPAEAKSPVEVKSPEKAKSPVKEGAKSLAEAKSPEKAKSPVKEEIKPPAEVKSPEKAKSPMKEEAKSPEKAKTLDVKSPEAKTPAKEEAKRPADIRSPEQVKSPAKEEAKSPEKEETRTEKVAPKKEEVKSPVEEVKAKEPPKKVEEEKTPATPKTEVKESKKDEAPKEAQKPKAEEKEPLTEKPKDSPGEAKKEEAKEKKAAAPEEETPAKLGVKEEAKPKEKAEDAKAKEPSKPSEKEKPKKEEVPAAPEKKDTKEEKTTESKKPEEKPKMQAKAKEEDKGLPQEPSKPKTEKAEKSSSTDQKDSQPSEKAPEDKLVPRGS


Tests used:
[1] = tested on: T1, rNFH-SA (engineered protein with residues 426-1066 of the rat NF-H sidearm domain, N-terminal tetra-Cys tag, C-terminal poly-His-Asn tag)
[2] = molecular target: T2, rNFH-SA (engineered protein with …)

Molecule | loss of HN-tag immunofluorescence; brush height by AFM [1] | loss of HN-tag immunofluorescence [2] | reduction of brush height by AFM [2]
thrombin | addition of thrombin produced a loss of fluorescence (indicating successful enzymatic cleavage) without producing a significant change in brush height by AFM | – | –
clostripain (protein) NKNQKVTIMYYCDADNNLEGSLLNDIEEMKTGYKDSPNLNLIALVDRSPRYSSDEKVLGEDFSDTRLYKIEHNKANRLDGKNEFPEISTTSKYEANMGDPEVLKKFIDYCKSNYEADKYVLIMANHGGGAREKSNPRLNRAICWDDSNLDKNGEADCLYMGEISDHLTEKQSVDLLAFDACLMGTAEVAYQYRPGNGGFSADTLVASSPVVWGPGFKYDKIFDRIKAGGGTNNEDDLTLGGKEQNFDPATITNEQLGALFVEEQRDSTHANGRYDQHLSFYDLKKAESVKRAIDNLAVNLSNENKKSEIEKLRGSGIHTDLMHYFDEYSEGEWVEYPYFDVYDLCEKINKSENFSSKTKDLASNAMNKLNEMIVYSFGDPSNNFKEGKNGLSIFLPNGDKKYSTYYTSTKIPHWTMQSWYNSIDTVKYGLNPYGKLSWCKDGQDPEINKVGNWFELLDSWFDKTNDVTGGVNHYQW | – | addition of clostripain produced the same loss of fluorescence | reducing brush height by 20%

Reference: patent US20160319041
